± gives the standard deviation of the averaged measurements.
What follows are sequences tested on ATP (assay: switch fluorescence ratio, 500 uM ATP over buffer (Cy3 cluster intensity, sum of 5 cycles each) (fold (ratio)); higher = stronger signal-on switching upon ATP binding; sequences stand for … in TCGTCGGCAGCGTCAGATGTGTATAAGAGACAGTTTTTTTTTTTTTTTTTTTTTTTTT…TC). Conditions: aptamer strand: ATP DNA aptamer (quencher-CACCTGGGGGAGTATTGCGGAGGAAGG + anchor), 100 nM annealed; ATP concentration: 500 uM.
Method in brief: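 Between each of five buffer/ATP cycles, the flow-cell was stripped with NaOH and re-annealed. Each cycle imaged Cy3-labelled switching-strand clusters, annealed to 100 nM quencher-labelled ATP aptamer on a modified Illumina MiSeq flow-cell, first in selection buffer and then after 15 min with 500 uM ATP at 22 °C. The fluorescence ratio is summed target-cycle over summed buffer-cycle Cy3 intensity per cluster, averaged per switch-domain sequence, with clusters outside 100-1000 RFU excluded.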
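Further: ATP exposure 15 min at 22 °C before imaging.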

Sequence | switch fluorescence ratio
ATGCCAGCGC | 1.02 ± 0.025
AAGAAAGGCT | 0.982 ± 0.033
TCTGGCTATT | 1.01 ± 0.02
TGTGATTTAC | 1.05 ± 0.011
GGTGTGCATA | 0.994 ± 0.028
GGATATAAGT | 1.01 ± 0.035
GAATTTACCT | 1.2 ± 0.039
CCGTGAGGTA | 1 ± 0.026
GAGTACTTAG | 1.03 ± 0.011
ATGCAGCAT | 1.06 ± 0.036
GTGGATAAAA | 0.972 ± 0.029
GTTTAATTGA | 0.9676 ± 0.0018
AGTTAACATG | 0.978 ± 0.016
GTTTTAGGGA | 0.979 ± 0.037
TAGAATAGTC | 0.974 ± 0.01
ATGGTAGTTG | 0.985 ± 0.018
ATTGGTCTCA | 0.975 ± 0.023
GCAGTTGCTG | 0.999 ± 0.02
AAAAGGAGGC | 1.01 ± 0.011
CAGTGTAGTC | 1.02 ± 0.057
GCGATTATGG | 0.977 ± 0.019
TTGTGTGTGT | 0.993 ± 0.019
GGGTGTTGTA | 1 ± 0.055

Sequence | switch fluorescence ratio
TCGGTTAGTG | 0.991 ± 0.036
AAGGGAGGAA | 1.02 ± 0.012
CGGCGCTAGG | 1.05 ± 0.045
GGATAGAGTG | 0.971 ± 0.052
ATATAGTTTT | 0.953 ± 0.011
GGGGGGTGGA | 1.01 ± 0.028
AGGTATCCCT | 1.01 ± 0.022
ACGCGGTA | 1.02 ± 0.058
ATGGTTTAGA | 1.03 ± 0.031
TGTTGGTCTT | 0.952 ± 0.032
GTAGCAAGGG | 2.38 ± 1.9
GGGGGACTGA | 0.991 ± 0.03
TTTTCTGGGG | 0.994 ± 0.032
TTATTTAGGT | 1.01 ± 0.043
CGCCGGGGGA | 1.05 ± 0.036
TATGATATGC | 1.032 ± 0.0011
TCCCGTTTTT | 1.02 ± 0.065
AGAAGTGCGG | 0.984 ± 0.032
TTTTTTACTT | 1.03 ± 0.054
GAAATCGGA | 0.993 ± 0.016
GGTGGACGGG | 0.974 ± 0.015
CGGTAGGAAC | 1.01 ± 0.028
TCAGCTGGGA | 1 ± 0.026

Sequence | switch fluorescence ratio
CGGCGCTTGG | 1.09 ± 0.035
GTGCGAATGG | 0.998 ± 0.016
GCTGGGGTGC | 1 ± 0.09
GCTATTGTGT | 0.9858 ± 0.0036
TAAATCACGC | 1.23 ± 0.24
ATTAAGAATT | 0.9986 ± 0.0027
GTGGCAAAGT | 0.9678 ± 9.7e-05
ACTGTAAATT | 1.086 ± 0.0031
CGCGGCGGTC | 1.02 ± 0.014
TTAAATAGGG | 1 ± 0.057
TCCAGGGTGC | 1.93 ± 0.37
CGGTACGGGG | 0.979 ± 0.018
GAAGTTGGCA | 0.9964 ± 0.0029
TGGAGGTAGT | 0.993 ± 0.033
TTTGAGAGAT | 0.991 ± 0.029
ACATGTAGGA | 1 ± 0.032
CTATCACCTG | 1.05 ± 0.021
GGGGGAGCGG | 0.992 ± 0.033
AATATGCAGG | 0.9657 ± 0.0034
GAGGGACGCT | 1.02 ± 0.033
CTCTTGGGGA | 1.02 ± 0.0057
CTCAGTAATT | 1.38 ± 0.046
TGAACGGGGA | 1.02 ± 0.031

Sequence | switch fluorescence ratio
TCAAGTTCTT | 1.03 ± 0.031
GGTTGGAGGC | 1.03 ± 0.067
TATTTCATGT | 1.02 ± 0.044
GGGGTGCAGC | 1.05 ± 0.02
TTCCGTTGCG | 1.16 ± 0.2
GCAGTAGCTG | 0.998 ± 0.011
TTGTGGGGCG | 0.986 ± 0.068
TGCACTCTCA | 1.04 ± 0.032
GTTATGAGTC | 1.02 ± 0.03
GGTAGGACTC | 1 ± 0.026
TATGTGTTTC | 1.18 ± 0.25
GCGGTAATCG | 1.03 ± 0.032
ATATATATAT | 1.01 ± 0.012
TGGAATGGAA | 0.9717 ± 0.0076
TTATTTAAAT | 1 ± 0.04
CAGCTTGGA | 1.01 ± 0.029
TGCCTTGGGG | 1.07 ± 0.16
CTCTTCTCTT | 0.9657 ± 0.0088
TTTGGTCCCT | 0.993 ± 0.016
TTAGTTATTA | 1.017 ± 0.0041
TTTGGTTCGA | 0.977 ± 0.012
ACAACCGTTT | 1.02 ± 0.027
GTCCTGGGGC | 0.9947 ± 0.0014

Sequence | switch fluorescence ratio
GCAGGGTGGC | 1 ± 0.062
AAAATGTCGA | 1 ± 0.024
AATAGTATAG | 0.966 ± 0.02
GTCGGGCCCG | 1.01 ± 0.06
TATGGCCAGC | 0.994 ± 0.047
GGGTGATAGA | 1.01 ± 0.039
CGGGGGACCG | 1 ± 0.02
GACTATCTAG | 0.975 ± 0.056
TTAAAGTAGG | 0.992 ± 0.015
TAACATTTAT | 0.979 ± 0.027
AGGGTTCCTG | 0.954 ± 0.036
GGGGTATTCT | 1.01 ± 0.013
TTTTGATTAC | 1.01 ± 0.065
GAAATTATCA | 0.977 ± 0.025
ACATCTCAGT | 1.06 ± 0.059
GATGAGAATT | 0.98912 ± 0.00024
TGTTTTTATT | 1.015 ± 0.0047
GTTTACGGGG | 0.997 ± 0.041
ATTTCGTTGC | 1.06 ± 0.058
TGCTTTTATT | 1 ± 0.022
GGCCTTTGCT | 1.02 ± 0.041
CTAGAGGGCG | 1.014 ± 0.0084
ATGTACAATT | 1.0917 ± 0.00014

Sequence | switch fluorescence ratio
GGTGTCCGGG | 0.9986 ± 0.0019
AGGGCGTCGA | 0.986 ± 0.034
TTACTTTAGG | 1.05 ± 0.023
ATTGCCCGCG | 1.0228 ± 0.00058
GTGTGCCAGC | 0.969 ± 0.013
AGTTGACTTT | 0.986 ± 0.011
AACGTGTTGG | 1.013 ± 0.0015
TGGGACACAG | 1.004 ± 0.007
GGATGTCAGG | 1 ± 0.045
TAGCTGCATG | 1.01 ± 0.017
CATAAGGGTT | 1.13 ± 0.17
TGATAATTAC | 1.19 ± 0.27
TTACCTACTT | 1.17 ± 0.12
GCGTTATACA | 0.9979 ± 0.0039
ATGAGGATGT | 1 ± 0.019
AGTGTTTAAT | 0.999 ± 0.032
GTTAGGGGG | 1.02 ± 0.023
TTTTACCTTG | 1.028 ± 0.01
GCTTTCATAT | 0.9996 ± 0.0099
AGTTTCGGAA | 1.021 ± 0.0038
ATATACGGGG | 1.04 ± 0.02
GGGCCCTGTT | 1.03 ± 0.021
GTGGTCCGTG | 0.962 ± 0.0097

Sequence | switch fluorescence ratio
CGGCTAGTGG | 0.961 ± 0.032
CGGTTAGATG | 1 ± 0.047
GGGTCAGGAT | 0.968 ± 0.019
ATTTTCTGTA | 1.0017 ± 0.00088
GGGAAATTTT | 0.987 ± 0.021
CCTGGTAAGT | 1.04 ± 0.051
AAAACGCATG | 1.05 ± 0.021
CTAGCACTGT | 1.045 ± 0.0022
AATTGCACCT | 1.22 ± 0.05
ATATTTTAGT | 1.03 ± 0.031
GTGCTTGGGG | 0.99 ± 0.044
TGCTCGGGCA | 1.014 ± 0.0072
CGAAGACTGC | 1.19 ± 0.12
TGGAATAGGG | 0.992 ± 0.011
TTTCGTTCTT | 1.02 ± 0.03
CCGGGTTACT | 1.91 ± 0.044
ACTAAAAAGA | 1.07 ± 0.056
TGTTTAGAAA | 1.01 ± 0.014
CTAGGCAACG | 0.982 ± 0.028

Source: the supplement of paper PMC10126150
